This is an account of results in US20240269194A1, “COMPOSITIONS AND METHODS FOR ISLET CELL TRANSPLANTS” (City of Hope, priority 2021, published 2024).

The experiment concerns the target T1, gastrin receptor CCKBR on human islets (human) (UniProt P32239).
T1 sequence (looked up): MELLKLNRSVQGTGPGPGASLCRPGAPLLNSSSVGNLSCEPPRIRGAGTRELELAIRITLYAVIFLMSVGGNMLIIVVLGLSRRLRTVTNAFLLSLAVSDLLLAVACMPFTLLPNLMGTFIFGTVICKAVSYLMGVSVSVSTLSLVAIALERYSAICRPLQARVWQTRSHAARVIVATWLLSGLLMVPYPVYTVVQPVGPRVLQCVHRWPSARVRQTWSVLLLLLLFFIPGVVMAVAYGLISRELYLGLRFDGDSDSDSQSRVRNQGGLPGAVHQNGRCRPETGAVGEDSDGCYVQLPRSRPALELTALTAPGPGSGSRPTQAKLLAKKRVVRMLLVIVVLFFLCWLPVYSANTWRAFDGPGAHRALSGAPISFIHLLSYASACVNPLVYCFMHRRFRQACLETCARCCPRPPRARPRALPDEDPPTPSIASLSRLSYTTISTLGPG
Briefly: cell-based or functional assay.

Take “gastrin analogue [Leu^15] Gastrin-17 (GAST-17) (peptide)”: the glucagon mRNA (qPCR) in human islets from donors with high HbA1c, 100 nM gastrin amounted to 1.8 fold; the insulin mRNA (qPCR) in human islets from donors with high HbA1c, 100 nM gastrin is over 2 fold; the somatostatin mRNA (qPCR) in human islets from donors with high HbA1c, 100 nM gastrin was determined as 2.5 fold.
